# In patent US20180009871A1 (INTARCIA THERAPEUTICS, published 2018):
# Where no end group is shown, it is not given here. [ ]: non-standard residue; d: D form. Aib = CC(C)(N)C(=O)O
# How the values were obtained:
# [1] = molecular target: human GLP-1 receptor (GLP-1R) (human, UniProt P43220 24-463); assay: cell-based or functional assay
# [2] = molecular target: human glucagon receptor (GCGR) (human, UniProt P47871 26-477); assay: cell-based or functional assay
# Chain of human GLP-1 receptor (GLP-1R) (P43220 24-463): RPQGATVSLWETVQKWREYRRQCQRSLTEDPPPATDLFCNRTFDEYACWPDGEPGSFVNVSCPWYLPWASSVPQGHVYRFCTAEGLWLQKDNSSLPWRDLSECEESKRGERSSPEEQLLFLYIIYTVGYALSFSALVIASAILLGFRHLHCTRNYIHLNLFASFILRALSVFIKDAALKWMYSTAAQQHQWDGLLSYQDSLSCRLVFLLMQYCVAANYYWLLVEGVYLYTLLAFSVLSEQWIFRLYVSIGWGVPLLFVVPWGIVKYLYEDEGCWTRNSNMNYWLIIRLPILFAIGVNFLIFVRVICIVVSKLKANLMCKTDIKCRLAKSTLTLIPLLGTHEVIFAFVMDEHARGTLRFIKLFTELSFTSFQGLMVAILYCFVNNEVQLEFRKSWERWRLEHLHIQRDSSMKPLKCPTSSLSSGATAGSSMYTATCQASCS
binder,measurement,setting,value
YSHGTFTSDYSKYLD[Aib]KYAQEFV[Aib]WLEDEPSSGAPPPS-OH (N-terminus assumed; SMILES CC(C)C[C@H](NC(=O)[C@H](Cc1ccc(O)cc1)NC(=O)[C@H](CCCCN)NC(=O)[C@H](CO)NC(=O)[C@H](Cc1ccc(O)cc1)NC(=O)[C@H](CC(=O)O)NC(=O)[C@H](CO)NC(=O)[C@@H](NC(=O)[C@H](Cc1ccccc1)NC(=O)[C@@H](NC(=O)CNC(=O)[C@H](Cc1c[nH]cn1)NC(=O)[C@H](CO)NC(=O)[C@@H](N)Cc1ccc(O)cc1)[C@@H](C)O)[C@@H](C)O)C(=O)N[C@@H](CC(=O)O)C(=O)NC(C)(C)C(=O)N[C@@H](CCCCN)C(=O)N[C@@H](Cc1ccc(O)cc1)C(=O)N[C@@H](C)C(=O)N[C@@H](CCC(N)=O)C(=O)N[C@@H](CCC(=O)O)C(=O)N[C@@H](Cc1ccccc1)C(=O)N[C@H](C(=O)NC(C)(C)C(=O)N[C@@H](Cc1c[nH]c2ccccc12)C(=O)N[C@@H](CC(C)C)C(=O)N[C@@H](CCC(=O)O)C(=O)N[C@@H](CC(=O)O)C(=O)N[C@@H](CCC(=O)O)C(=O)N1CCC[C@H]1C(=O)N[C@@H](CO)C(=O)N[C@@H](CO)C(=O)NCC(=O)N[C@@H](C)C(=O)N1CCC[C@H]1C(=O)N1CCC[C@H]1C(=O)N1CCC[C@H]1C(=O)N[C@@H](CO)C(=O)O)C(C)C) [Compound A1],hGLP1 pEC50 (cAMP),[1],5.2 pEC50
same,hGCGR pEC50 (cAMP),[2],12.3 pEC50
WSHGTFTSDYSKYLD[Aib]KRAQEFV[Aib]WLEDEPSSGAPPPS-OH (N-terminus assumed; SMILES CC(C)C[C@H](NC(=O)[C@H](Cc1ccc(O)cc1)NC(=O)[C@H](CCCCN)NC(=O)[C@H](CO)NC(=O)[C@H](Cc1ccc(O)cc1)NC(=O)[C@H](CC(=O)O)NC(=O)[C@H](CO)NC(=O)[C@@H](NC(=O)[C@H](Cc1ccccc1)NC(=O)[C@@H](NC(=O)CNC(=O)[C@H](Cc1c[nH]cn1)NC(=O)[C@H](CO)NC(=O)[C@@H](N)Cc1c[nH]c2ccccc12)[C@@H](C)O)[C@@H](C)O)C(=O)N[C@@H](CC(=O)O)C(=O)NC(C)(C)C(=O)N[C@@H](CCCCN)C(=O)N[C@@H](CCCNC(=N)N)C(=O)N[C@@H](C)C(=O)N[C@@H](CCC(N)=O)C(=O)N[C@@H](CCC(=O)O)C(=O)N[C@@H](Cc1ccccc1)C(=O)N[C@H](C(=O)NC(C)(C)C(=O)N[C@@H](Cc1c[nH]c2ccccc12)C(=O)N[C@@H](CC(C)C)C(=O)N[C@@H](CCC(=O)O)C(=O)N[C@@H](CC(=O)O)C(=O)N[C@@H](CCC(=O)O)C(=O)N1CCC[C@H]1C(=O)N[C@@H](CO)C(=O)N[C@@H](CO)C(=O)NCC(=O)N[C@@H](C)C(=O)N1CCC[C@H]1C(=O)N1CCC[C@H]1C(=O)N1CCC[C@H]1C(=O)N[C@@H](CO)C(=O)O)C(C)C) [Compound A75],hGLP1 pEC50 (cAMP),[1],< 9 pEC50
same,hGCGR pEC50 (cAMP),[2],11.3 pEC50
YSHGTFTSDYSKYLD[Aib]KAAQEFV[Aib]WLEDEPSSGAPPPS-OH (N-terminus assumed; SMILES CC(C)C[C@H](NC(=O)[C@H](Cc1ccc(O)cc1)NC(=O)[C@H](CCCCN)NC(=O)[C@H](CO)NC(=O)[C@H](Cc1ccc(O)cc1)NC(=O)[C@H](CC(=O)O)NC(=O)[C@H](CO)NC(=O)[C@@H](NC(=O)[C@H](Cc1ccccc1)NC(=O)[C@@H](NC(=O)CNC(=O)[C@H](Cc1c[nH]cn1)NC(=O)[C@H](CO)NC(=O)[C@@H](N)Cc1ccc(O)cc1)[C@@H](C)O)[C@@H](C)O)C(=O)N[C@@H](CC(=O)O)C(=O)NC(C)(C)C(=O)N[C@@H](CCCCN)C(=O)N[C@@H](C)C(=O)N[C@@H](C)C(=O)N[C@@H](CCC(N)=O)C(=O)N[C@@H](CCC(=O)O)C(=O)N[C@@H](Cc1ccccc1)C(=O)N[C@H](C(=O)NC(C)(C)C(=O)N[C@@H](Cc1c[nH]c2ccccc12)C(=O)N[C@@H](CC(C)C)C(=O)N[C@@H](CCC(=O)O)C(=O)N[C@@H](CC(=O)O)C(=O)N[C@@H](CCC(=O)O)C(=O)N1CCC[C@H]1C(=O)N[C@@H](CO)C(=O)N[C@@H](CO)C(=O)NCC(=O)N[C@@H](C)C(=O)N1CCC[C@H]1C(=O)N1CCC[C@H]1C(=O)N1CCC[C@H]1C(=O)N[C@@H](CO)C(=O)O)C(C)C) [Compound A76],hGLP1 pEC50 (cAMP),[1],< 9 pEC50
same,hGCGR pEC50 (cAMP),[2],12.7 pEC50
YSHGTFTSDYSKYLD[Aib]KLAQEFV[Aib]WLEDEPSSGAPPPS-OH (N-terminus assumed; SMILES CC(C)C[C@H](NC(=O)[C@H](CCCCN)NC(=O)C(C)(C)NC(=O)[C@H](CC(=O)O)NC(=O)[C@H](CC(C)C)NC(=O)[C@H](Cc1ccc(O)cc1)NC(=O)[C@H](CCCCN)NC(=O)[C@H](CO)NC(=O)[C@H](Cc1ccc(O)cc1)NC(=O)[C@H](CC(=O)O)NC(=O)[C@H](CO)NC(=O)[C@@H](NC(=O)[C@H](Cc1ccccc1)NC(=O)[C@@H](NC(=O)CNC(=O)[C@H](Cc1c[nH]cn1)NC(=O)[C@H](CO)NC(=O)[C@@H](N)Cc1ccc(O)cc1)[C@@H](C)O)[C@@H](C)O)C(=O)N[C@@H](C)C(=O)N[C@@H](CCC(N)=O)C(=O)N[C@@H](CCC(=O)O)C(=O)N[C@@H](Cc1ccccc1)C(=O)N[C@H](C(=O)NC(C)(C)C(=O)N[C@@H](Cc1c[nH]c2ccccc12)C(=O)N[C@@H](CC(C)C)C(=O)N[C@@H](CCC(=O)O)C(=O)N[C@@H](CC(=O)O)C(=O)N[C@@H](CCC(=O)O)C(=O)N1CCC[C@H]1C(=O)N[C@@H](CO)C(=O)N[C@@H](CO)C(=O)NCC(=O)N[C@@H](C)C(=O)N1CCC[C@H]1C(=O)N1CCC[C@H]1C(=O)N1CCC[C@H]1C(=O)N[C@@H](CO)C(=O)O)C(C)C) [Compound A78],hGLP1 pEC50 (cAMP),[1],< 9 pEC50
same,hGCGR pEC50 (cAMP),[2],10.8 pEC50
YSHGTFTSDYSKYLD[Aib]KTAQEFV[Aib]WLEDEPSSGAPPPS-OH (N-terminus assumed; SMILES CC(C)C[C@H](NC(=O)[C@H](Cc1ccc(O)cc1)NC(=O)[C@H](CCCCN)NC(=O)[C@H](CO)NC(=O)[C@H](Cc1ccc(O)cc1)NC(=O)[C@H](CC(=O)O)NC(=O)[C@H](CO)NC(=O)[C@@H](NC(=O)[C@H](Cc1ccccc1)NC(=O)[C@@H](NC(=O)CNC(=O)[C@H](Cc1c[nH]cn1)NC(=O)[C@H](CO)NC(=O)[C@@H](N)Cc1ccc(O)cc1)[C@@H](C)O)[C@@H](C)O)C(=O)N[C@@H](CC(=O)O)C(=O)NC(C)(C)C(=O)N[C@@H](CCCCN)C(=O)N[C@H](C(=O)N[C@@H](C)C(=O)N[C@@H](CCC(N)=O)C(=O)N[C@@H](CCC(=O)O)C(=O)N[C@@H](Cc1ccccc1)C(=O)N[C@H](C(=O)NC(C)(C)C(=O)N[C@@H](Cc1c[nH]c2ccccc12)C(=O)N[C@@H](CC(C)C)C(=O)N[C@@H](CCC(=O)O)C(=O)N[C@@H](CC(=O)O)C(=O)N[C@@H](CCC(=O)O)C(=O)N1CCC[C@H]1C(=O)N[C@@H](CO)C(=O)N[C@@H](CO)C(=O)NCC(=O)N[C@@H](C)C(=O)N1CCC[C@H]1C(=O)N1CCC[C@H]1C(=O)N1CCC[C@H]1C(=O)N[C@@H](CO)C(=O)O)C(C)C)[C@@H](C)O) [Compound A77],hGLP1 pEC50 (cAMP),[1],< 9 pEC50
same,hGCGR pEC50 (cAMP),[2],11.5 pEC50
YSHGTFTSDYSKYLD[Aib]KSAQEFV[Aib]WLEDEPSSGAPPPS-OH (N-terminus assumed; SMILES CC(C)C[C@H](NC(=O)[C@H](Cc1ccc(O)cc1)NC(=O)[C@H](CCCCN)NC(=O)[C@H](CO)NC(=O)[C@H](Cc1ccc(O)cc1)NC(=O)[C@H](CC(=O)O)NC(=O)[C@H](CO)NC(=O)[C@@H](NC(=O)[C@H](Cc1ccccc1)NC(=O)[C@@H](NC(=O)CNC(=O)[C@H](Cc1c[nH]cn1)NC(=O)[C@H](CO)NC(=O)[C@@H](N)Cc1ccc(O)cc1)[C@@H](C)O)[C@@H](C)O)C(=O)N[C@@H](CC(=O)O)C(=O)NC(C)(C)C(=O)N[C@@H](CCCCN)C(=O)N[C@@H](CO)C(=O)N[C@@H](C)C(=O)N[C@@H](CCC(N)=O)C(=O)N[C@@H](CCC(=O)O)C(=O)N[C@@H](Cc1ccccc1)C(=O)N[C@H](C(=O)NC(C)(C)C(=O)N[C@@H](Cc1c[nH]c2ccccc12)C(=O)N[C@@H](CC(C)C)C(=O)N[C@@H](CCC(=O)O)C(=O)N[C@@H](CC(=O)O)C(=O)N[C@@H](CCC(=O)O)C(=O)N1CCC[C@H]1C(=O)N[C@@H](CO)C(=O)N[C@@H](CO)C(=O)NCC(=O)N[C@@H](C)C(=O)N1CCC[C@H]1C(=O)N1CCC[C@H]1C(=O)N1CCC[C@H]1C(=O)N[C@@H](CO)C(=O)O)C(C)C) [Compound A2],hGLP1 pEC50 (cAMP),[1],5.4 pEC50
same,hGCGR pEC50 (cAMP),[2],11.7 pEC50
YSQGTFTSDYSKYLDAARAQEFVKWLEDEPKSKSPPPS-NH2 [Compound A3],hGLP1 pEC50 (cAMP),[1],6.7 pEC50
same,hGCGR pEC50 (cAMP),[2],12.1 pEC50
YSHGTFTSDYSKYLD[Aib]KEAQEFV[Aib]WLEDEPSSGAPPPS-OH (N-terminus assumed; SMILES CC(C)C[C@H](NC(=O)[C@H](Cc1ccc(O)cc1)NC(=O)[C@H](CCCCN)NC(=O)[C@H](CO)NC(=O)[C@H](Cc1ccc(O)cc1)NC(=O)[C@H](CC(=O)O)NC(=O)[C@H](CO)NC(=O)[C@@H](NC(=O)[C@H](Cc1ccccc1)NC(=O)[C@@H](NC(=O)CNC(=O)[C@H](Cc1c[nH]cn1)NC(=O)[C@H](CO)NC(=O)[C@@H](N)Cc1ccc(O)cc1)[C@@H](C)O)[C@@H](C)O)C(=O)N[C@@H](CC(=O)O)C(=O)NC(C)(C)C(=O)N[C@@H](CCCCN)C(=O)N[C@@H](CCC(=O)O)C(=O)N[C@@H](C)C(=O)N[C@@H](CCC(N)=O)C(=O)N[C@@H](CCC(=O)O)C(=O)N[C@@H](Cc1ccccc1)C(=O)N[C@H](C(=O)NC(C)(C)C(=O)N[C@@H](Cc1c[nH]c2ccccc12)C(=O)N[C@@H](CC(C)C)C(=O)N[C@@H](CCC(=O)O)C(=O)N[C@@H](CC(=O)O)C(=O)N[C@@H](CCC(=O)O)C(=O)N1CCC[C@H]1C(=O)N[C@@H](CO)C(=O)N[C@@H](CO)C(=O)NCC(=O)N[C@@H](C)C(=O)N1CCC[C@H]1C(=O)N1CCC[C@H]1C(=O)N1CCC[C@H]1C(=O)N[C@@H](CO)C(=O)O)C(C)C) [Compound A79],hGLP1 pEC50 (cAMP),[1],< 9 pEC50
same,hGCGR pEC50 (cAMP),[2],10.2 pEC50
